For this test, the target named is EGFR (human) (UniProt P00533). Nature of the test: flow cytometry on HCC-1954 cells, upper panel; staining antibody not named on the sheet or in the legend, assigned by analogy with FIG. 28A and 28C; open histogram shifted from the hatched control. On the technique in general: Flow cytometry measures light scatter and fluorescence of single cells or particles in a stream.

Results on one substance are retold here after US20180273623A1.

For the substance EGFR 528 (phb 704) (antibody), the MFI was 262.
